The values below come from the supplement of paper PMC10567573.

This data set in a line: protein stability index of a GFP-peptide fusion (GPS, HEK-293T) (PSI 1-6); higher = more stable. The settings on record: c terminus: a fixed tail appended.

± gives the standard deviation.
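Also: 24-mer peptide tiles fused after GFP, lentivirally expressed, FACS-sorted into six equal bins by GFP/DsRed ratio, decoded by Illumina sequencing, PSI is the read-weighted mean bin number.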

As to SDLNVVASFDRRGEYIYTGNAKGK [RBBP5], the protein stability index was 4.32 ± 0.6 (treatment: DMSO) and 4.4 ± 0.26 (treatment: MLN4924 1 uM, 8 h).

For SDSMTDVPVDTGVAARTPAVEGLT [TPD52L2], the protein stability index by setting is: (treatment: DMSO) 5.3 ± 0.29; (treatment: MLN4924 1 uM, 8 h) 5.26 ± 0.15.

As for SDYESIEVPDSYTGPRLSFPLLPD [PPEF2], the protein stability index was 4.13 ± 0.19 (treatment: DMSO) and 4.09 ± 0.15 (treatment: MLN4924 1 uM, 8 h).

Take SEEAAVLQYASLVGQKCSERMLLF [ATE1]: the protein stability index runs as follows: (treatment: DMSO) 2.37 ± 0.4; (treatment: MLN4924 1 uM, 8 h) 2.19 ± 0.34.

For the sequence SEEMVKMVLSRPCHPDDQFTTSIL [INTS3], the protein stability index is 2.94 ± 0.34 (treatment: DMSO) and 2.98 ± 0.39 (treatment: MLN4924 1 uM, 8 h).

In the case of SEKTDESDTIPYLKKFLYNFDNPW [MIA2], the protein stability index was 2.78 ± 0.14 (treatment: DMSO) and 2.11 ± 0.039 (treatment: MLN4924 1 uM, 8 h).

For SESPGSLSEVLAQPQGALAPPNCE [DNAAF3], the protein stability index runs as follows: (treatment: DMSO) 5.44 ± 0.1; (treatment: MLN4924 1 uM, 8 h) 5.17 ± 0.17.

Regarding SFVYGAVPIGASIYVIGDLDTGTN [GAN], the protein stability index is, setting by setting: (treatment: DMSO) 2.35 ± 0.32; (treatment: MLN4924 1 uM, 8 h) 2.29 ± 0.61.

As for SGEKYDPDANTWTALPPMNEARHN [GAN], the protein stability index by setting is: (treatment: DMSO) 4.61 ± 0.55; (treatment: MLN4924 1 uM, 8 h) 4.8 ± 0.13.

Consider SGGGGGGGGGGGGGKSGGIVISPF [CCDC6], for which the protein stability index is, setting by setting: (treatment: DMSO) 3.53 ± 0.41; (treatment: MLN4924 1 uM, 8 h) 3.37 ± 0.23.

For the sequence SGHGDAHLQEYAGNFQGIRFHYDR [FATE1], the protein stability index (treatment: DMSO) worked out at 3.32 ± 0.17 and the protein stability index (treatment: MLN4924 1 uM, 8 h) amounted to 3.33 ± 0.1.

Consider SGLGSCLPGSYLSSECHTSGFVGS [KRT36], for which the protein stability index was found to be 2.62 ± 0.32 (treatment: DMSO) and 2.69 ± 0.23 (treatment: MLN4924 1 uM, 8 h).

Turning to SHLCSCLAMLALLSPLSLAQYDSW [LOXL2], the protein stability index is, setting by setting: (treatment: DMSO) 3.02 ± 0.29; (treatment: MLN4924 1 uM, 8 h) 2.96 ± 1.2.

SIERSHRIATETDQIGSEIIEELG [VTI1B]: the protein stability index reads like this: (treatment: DMSO) 4.88 ± 0.33; (treatment: MLN4924 1 uM, 8 h) 5 ± 0.2.

Turning to SILLCLLASGLVVFFLFPHSVLVD [TMEM106C], the protein stability index (treatment: DMSO) came to 3 ± 0.49 and the protein stability index (treatment: MLN4924 1 uM, 8 h) was 2.56 ± 0.044.

SINVMKQLIGSSNLFVMQVEMDIY [GMCL1]: the protein stability index came to 2.98 ± 0.49 (treatment: DMSO) and 2.82 ± 0.73 (treatment: MLN4924 1 uM, 8 h).

With SIPLERIHFDSYITCVSGAIVDLI [FBXO33], the protein stability index (treatment: DMSO) was determined as 2.44 ± 0.42 and the protein stability index (treatment: MLN4924 1 uM, 8 h) turned out to be 2.26 ± 0.42.

As for SIQWPGKRSSRRVQRHNSFSPNSP [NECAB1], the protein stability index runs as follows: (treatment: DMSO) 3.54 ± 0.27; (treatment: MLN4924 1 uM, 8 h) 3.62 ± 0.23.

As to SIYGIPHSTLEYKVKERLGTLKNP [LCOR], the protein stability index was 3.12 ± 0.31 (treatment: DMSO) and 3.2 ± 0.52 (treatment: MLN4924 1 uM, 8 h).

SKAGPTRIFTSNTHSSVVLQGFDQ [KLHL13]: the protein stability index reads like this: (treatment: DMSO) 3.53 ± 0.32; (treatment: MLN4924 1 uM, 8 h) 3.32 ± 0.12.

As to SLENTLTESEAHYSSQLSQVQSLI [KRT34], the protein stability index (treatment: DMSO) stood at 3.32 ± 0.093 and the protein stability index (treatment: MLN4924 1 uM, 8 h) was determined as 3.42 ± 0.31.

For the sequence SLMDLAIEEGFNPVQASQLEEEFD [NFE2L1], the protein stability index runs as follows: (treatment: DMSO) 5.35 ± 0.35; (treatment: MLN4924 1 uM, 8 h) 5.49 ± 0.12.

As to SLQFDEKCLSIMLAEWEANPLICP [RPAIN], the protein stability index reads like this: (treatment: DMSO) 2.33 ± 0.24; (treatment: MLN4924 1 uM, 8 h) 2.29 ± 0.18.

For SLRKGASLSNGQGSRVLHVVQTLY [NCK2], the protein stability index was determined as 2.29 ± 0.26 (treatment: DMSO) and 2.57 ± 0.11 (treatment: MLN4924 1 uM, 8 h).

In the case of SLRKSNTLCDVTLRVEQKDFPAHR [KLHL12], the protein stability index was determined as 3.58 ± 0.3 (treatment: DMSO) and 3.91 ± 0.38 (treatment: MLN4924 1 uM, 8 h).

As to SMAMEYFDEKIVPILKRKLPGSDV [FBXO28], the protein stability index reads like this: (treatment: DMSO) 3 ± 0.22; (treatment: MLN4924 1 uM, 8 h) 3.25 ± 0.073.

Turning to SMEVFTHYDLLNLNGTKVAEGHKA [LOXL2], the protein stability index was 4.39 ± 0.16 (treatment: DMSO) and 3.85 ± 0.42 (treatment: MLN4924 1 uM, 8 h).

As for SMLSKNPEDRPSLDDIIRHDFFLQ [PLK2], the protein stability index stood at 3 ± 0.21 (treatment: DMSO) and 3.19 ± 0.32 (treatment: MLN4924 1 uM, 8 h).

SNGFPERDPPRPGPSRPAEKPPRP [GCH1] returned a protein stability index (treatment: DMSO) of 5 ± 0.1 and a protein stability index (treatment: MLN4924 1 uM, 8 h) of 4.99 ± 0.082.

Take SNPNGNGGFMGYSAENIPGCSSSG [CRY1]: the protein stability index is, setting by setting: (treatment: DMSO) 4.57 ± 0.24; (treatment: MLN4924 1 uM, 8 h) 4.34 ± 0.35.

The sequence SNSEKAKNIFRIRFHDPSPAQSHT [NET1] showed a protein stability index (treatment: DMSO) of 3.13 ± 0.2 and a protein stability index (treatment: MLN4924 1 uM, 8 h) of 3.06 ± 0.37.

As to SPVVAMTSRRSGVGLAVVNGQLMA [KLHL20], the protein stability index was 2.88 ± 0.36 (treatment: DMSO) and 2.95 ± 0.43 (treatment: MLN4924 1 uM, 8 h).

As to SQITDSEHNSSLVSQQTGSPGKQP [ZNF8], the protein stability index amounted to 5.33 ± 0.16 (treatment: DMSO) and 5.26 ± 0.23 (treatment: MLN4924 1 uM, 8 h).

Consider SQLSVLSLSGVMLTDVSPEPLQAL [PRAME], for which the protein stability index worked out at 2.36 ± 0.37 (treatment: DMSO) and 2.4 ± 0.3 (treatment: MLN4924 1 uM, 8 h).

For SRIYGQAMAIINGSLYVFGGTTGY [KLHDC10], the protein stability index is, setting by setting: (treatment: DMSO) 2.92 ± 0.3; (treatment: MLN4924 1 uM, 8 h) 2.87 ± 0.6.

Turning to SRRREQSSSRNSHLVQHQHPNSRK [ZNF8], the protein stability index reads like this: (treatment: DMSO) 5.14 ± 0.46; (treatment: MLN4924 1 uM, 8 h) 5.41 ± 0.075.
